A short description of data set [1]: Optimum pH of the enzyme activity. To be noted: MacIlvaine buffer, 35° C., 30 min. The format is biochemical. The procedure:
(§1) The activity of α-isomaltosyl-transferring enzyme was measured by the following assay: A substrate solution was prepared by dissolving panose in 100 mM acetate buffer (pH 6.0) to give a concentration of 2% (w/v). A reaction mixture was prepared by mixing 0.5 ml of the substrate solution and 0.5 ml of an enzyme solution, and incubated at 35° C. for 30 min. After stopping the reaction by boiling for 10 min, the amount of glucose formed in the reaction mixture was determined by the glucose oxidase-peroxidase method. One unit of α-isomaltosyl-transferring activity was defined as the amount of the enzyme that forms one μmole of glucose per minute under the above conditions.
A purified specimen of polypeptide having α-isomaltosyl-transferring activity, obtained by the method in Experiment 3-2, was acted on the substrate in MacIlvaine buffer of various pHs at 35° C. for 30 min according to the assay method of α-isomaltosyl-transferring enzyme disclosed in Experiment 1-1.

The nature of data set [2]: Optimum temperature of the enzyme activity. In kind it is biochemical. To be noted: incubated for 30 min, pH 6.0. The procedure:
as §1
A purified specimen of polypeptide having α-isomaltosyl-transferring activity, obtained by the method in Experiment 3-2, was acted on the substrate in 20 mM acetate buffer (pH6.0) at various temperatures for 30 min, according to the assay method of α-isomaltosyl-transferring enzyme disclosed in Experiment 1-1.

The nature of data set [3]: Thermal stability of the polypeptide. In kind it is physicochemical. The conditions noted are these: 20 mM acetate buffer (pH 6.0), 60 min. The procedure: A purified specimen of polypeptide having α-isomaltosyl-transferring activity, obtained by the method in Experiment 3-2, was incubated in 20 mM acetate buffer (pH6.0) at various temperatures for 60 min according to the assay method of α-isomaltosyl-transferring enzyme disclosed in Experiment 1-1.

B1: polypeptide having α-isomaltosyl-transferring enzyme activity from Bacillus globisporus N75: purified α-isomaltosyl-transferring enzyme from Bacillus globisporus N75 (FERM BP-7591), contains the … (protein, listed as Bacillus globisporus)
chain: IDGVYHAPYGIDDLYEIQATERSPRDPVAGETVYIKITTWPIEPGQTAWVTWTKNGVAQPAVGAAYKYNSGNNTYWEANLGSFAKGDVISYTVRGNKDGANEKTAGPFTFTVTDWEYVSSIGSVTNNTNRVLLNAVPNTGTLSPKINISFTADDVFRVQLSPTGSGTLSTGLSNFTVTDSASTAWISTSKLKLKVDKNPFKLSVYKPDGTTLIARQYDSTANRNLAWLTNGSTVINKIEDHFYSPASEEFFGFGERYNNFRKRGTDVDTYVYNQYKNQNDRTYMAIPFMLNSSGYGIFVNSTYYSKFRLATERSDMYSFTADTGGSANSTLDYYFIYGNDLKGVVSNYANITGKPAALPKWAFGLWMSANEWDRQSKVATAINNANTNNIPATAVVLEQWSDENTFYMFNDAQYTAKPGGSTHSYTDYIFPAAGRWPNPKQMADNVHSNGMKLVLWQVPIQKWTAAPHLQKDNDESYMIAQNYAVGNGSGGQYRIPSGQWFENSLLLDFTNPSAKNWWMSKRAYLFDGVGIDGFKTDGGEMVWGRWNTFANGKKGDEMRNQYPNDYVKAYNEYARSKKSDAVSFSRSGTQGAQANQIFWSGDQESTFGAFQQAVQAGLTAGLSGVPYWSWDLAGFTGAYPSAELYKRATAMSAFAPIMQFHSEANGSSGINEERSPWNAQARTGDNTIISHFAKYTNTRMNLLPYIYSEAKAASDTGVPMMRAMALEYPSDTQTYGLTQQYMFGGSLLVAPVLNQGETNKNIYLPQGDWIDFWFGAQRPGGRTISYYAGVDDLPVFVKSGSILPMNLNGQYQVGGTIGNSLTAYNNLTFRIYPLGTTTYSWNDDIGGSVKTITSTEQYGLNKETVTLPAINSAKTLQVFTTKPSSVTLGGTALTAHSTLSALIGASSGWYYDTVQKLAYVKLGASSSAQTVVLDGVNKVEYEAEFGTLTGVTTNTNHAGYMGTGFVDGFDAAGDAVTFDVSVKAAGTYALKVRYASAGGNASRAIYVNNAKVTDLALPATANWDTWGTATVNVALNAGYNSIKVSYDNTNTLGINLDNIAIVEH
With B1, the “optimum pH” value in data set [1] is “about 6.0”. Besides, in data set [2], the optimum temperature result was “about 50 °C”. Also, the thermal stability entry in data set [3] was “up to 45 °C”.

The values above are taken from patent US7098013B2, “Polypeptide having α-isomaltosyl-transferase activity” (Kabushiki Kaisha Hayashibara Seibutsu Kagaku Kenkyujo, priority 2000, dated 2006).
